Reference: publication PMC3266958 (Oncogene, 2011)

Biological target: purified bovine calmodulin (bovine, UniProt P62157 1-149)
Experiment: ITC

- Kd: 810 nM
B1: FBXL2 (ITC with CaM, data not shown) (natural protein)
chain: MVFSNNDEGLINKKLPKELLLRIFSFLDIVTLCRCAQISKAWNILALDGSNWQRIDLFNFQTDVEGRVVENISKRCGGFLRKLSLRGCIGVGDSSLKTFAQNCRNIEHLNLNGCTKITDSTCYSLSRFCSKLKHLDLTSCVSITNSSLKGISEGCRNLEYLNLSWCDQITKDGIEALVRGCRGLKALLLRGCTQLEDEALKHIQNYCHELVSLNLQSCSRITDEGVVQICRGCHRLQALCLSGCSNLTDASLTALGLNCPRLQILEAARCSHLTDAGFTLLARNCHELEKMDLEECILITDSTLIQLSIHCPKLQALSLSHCELITDDGILHLSNSTCGHERLRVLELDNCLLITDVALEHLENCRGLERLELYDCQQVTRAGIKRMRAQLPHVKVHAYFAPVTPPTAVAGSGQRLCRCCVIL
